# Data taken from patent publication US20260176352A1 (BIRD ROCK BIO, published 2026).
# Positions count from the first letter of the chain named. “And” between values parts separate entries of the source, which are not always exact repeats. Equal entries are not always repeated.
# B1: PA2LR3-P4B5 (chimeric) (antibody, human IgG1, kappa, V domains shown)
# VH: EVQLQQSGAELVRPGSSVKISCKASGYAFSYYWMNWVKQRPGQGLEWIGQIYPGDGDTNYSGRFKGKATLTADKSSSTAYIQLSSLTSEDSAVYFCARSHGNYFPYWGQGTLVTVSA
# VL: DIVLNQSPAIMSASLGERVTMTCTASSSVSSSYLHWYQQKPGSSPKLWIYSTSNLASGVPARFSGSGSGTSYSLTISSMEAEDAATYYCHQYHRSPLTFGAGTKLEIKR
# B2: P4B5 antibody labeled with Vivotag 680 XL (antibody, human IgG1, kappa, V domains shown)
# VH: B1 VH
# VL: B1 VL
# modifications: Vivotag 680 XL label, site and chain not stated
# notes: also called Labeled P4B5
# B3: PA13R3-P1C4 (chimeric) IgG (antibody, V domains shown)
# VH: B1 VH with S16V, A28E, D57E, N59K, S61N, R63K, S77N, I81M, F104L
# VL: B1 VL with N5T, L97P, I107L
# notes: Phage-derived mouse variable regions on human constant regions; also called Chimeric P1C4-IgG; PA13R3-P1C4 IgG
# B4: 36E12B6C2 IgG (hybridoma-derived) (antibody, V domains shown)
# VH: QVQLQQSGAELVRPGSSVKISCKASGYEFSYYWMNWVKQRPGQGLQWIGQIYPGDGDTNYNGKFKGKATLTADKSSSTAYMHLTSLTSEDSAVYFCARSGGNPFAFWGQGTLVTVSA
# VL: DIQMTQTSSSLSASLGDRVTFSCRASQDISNYLNWYQQKPDGTVKLLIYYTSRLHSGVTSRFRGSGSGTDYSLTISNLEQEDVATYFCQQGHTLPWSFGGGTKLEIKR
# Columns and labels:
# [1] = molecular target: T1, A138 iCAPS (CB1 with ICL3 native sequence replaced with protein 1 sequence) (human, UniProt P21554 99-414); assay: ELISA, purified IgG on A138 CB1 iCAPS
# T1 construct: The insert stands inside the chain in place of ICL3
# Method: (§1) Purified IgG was tested for binding to purified CB1 receptor (CB1 Conformation Antigen Presenting System (iCAPS)) by ELISA. Non-biotinylated antigens (e.g. empty iCAPS) were coated directly on Maxisorp plates. The primary antibodies were purified IgGs with 1:3 serial dilutions, incubated on the plate for 1 hour. After 3 rounds of washing with PBST, secondary antibodies HRP goat anti-mouse IgG (Abmart) or HRP goat anti-human IgG (Sigma), depending on the species of the IgGs were added and incubated for another hour. The plates were washed three times with PBST, then developed with TMB (Biopanda). HCl was added to the plates to stop the reaction. Absorbance at 450 nm was read on Emax precision microplate reader (Molecular Devices).
# [2] = molecular target: T2, A139 iCAPS (CB1 with ICL3 native sequence replaced with BRIL) (human, UniProt P21554 99-414); assay: ELISA, purified IgG on A139 CB1 iCAPS
# T2 construct: The insert stands inside the chain in place of ICL3
# Method: as §1
# [3] = molecular target: T3, native full length human CB1 receptor (cannabinoid 1 receptor) (human, UniProt P21554 1-472); assay: binding to CB1 cells (FIG. 12); unlabeled P4B5
# T3 construct: whole, on cells; also called A156; Native human CB1 TRex CHO A156
# [4] = molecular target: T3, native full length human CB1 receptor …; assay: binding to CB1 cells (FIG. 12); labeled with Vivotag 680 XL
# [5] = molecular target: T3, native full length human CB1 receptor …; assay: flow cytometry, TRex-CHO human CB1 cells; mean ± SD
# Method: (§2) TRex CHO parental cells, and TRex-CHO cells stably transfected with tetracycline inducible human CB1, human CB2 or mouse CB1 expression constructs were harvested. […] Cells were then centrifuged at 4° C. at 1600 rpm for 3 minutes; supernatant was aspirated and cells were washed with 200 μL FACS buffer. The washing procedure was repeated twice. After the final wash, cells were re-suspended in FACS buffer containing PE-conjugated anti-human Fc secondary antibody (1:200 dilutions) and incubated at 4° C. for 30 minutes. Cells were washed with 200 μL FACS buffer twice and analyzed by flow cytometry (Guava). Data analysis and measurement of binding affinity (KD) was performed using GraphPad Prism software.
# [6] = molecular target: T3, native full length human CB1 receptor …; assay: flow cytometry, TRex-CHO human CB1 cells; mean of batch 2
# Method: as §2
# human CB2 [7] = molecular target: T4, human CB2 (human, UniProt P34972 1-360); assay: flow cytometry on TRex-CHO human CB2 cells, middle panel
# T4 construct: whole, on cells; also called TRexCHO Human CB2
# T4 sequence (P34972 whole entry): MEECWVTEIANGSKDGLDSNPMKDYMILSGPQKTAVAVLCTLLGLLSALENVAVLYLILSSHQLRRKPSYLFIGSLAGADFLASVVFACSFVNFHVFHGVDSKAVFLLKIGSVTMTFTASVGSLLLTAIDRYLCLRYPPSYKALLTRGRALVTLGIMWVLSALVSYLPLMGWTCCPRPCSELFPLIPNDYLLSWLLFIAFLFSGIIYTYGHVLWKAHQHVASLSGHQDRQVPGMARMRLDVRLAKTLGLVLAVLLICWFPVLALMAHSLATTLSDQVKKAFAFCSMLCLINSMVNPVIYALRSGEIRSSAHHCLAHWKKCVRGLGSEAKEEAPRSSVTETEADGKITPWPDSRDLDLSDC
# Method: (§3) After being washed with 200 μl of FACS buffer twice, cells were incubated with PE conjugated anti-human secondary antibody (Southern Biotech) for 30 minutes on ice. Cells were washed with 200 μl of FACS buffer twice and transferred to BD Falcon 5 ml tube and analyzed by flow cytometry (BD FACScalibur).
# [8] = molecular target: T3, native full length human CB1 receptor …; assay: flow cytometry, A156 cells; batch 1.01 mg/ml
# Method: (§4) To further assess TRex CHO parental cells, TRex CHO A56 overexpressed CB1, Native human CB1 TRex CHO A156, 5HT2B, Mouse CB1 and human CB2 were used to examine the specificity of IgG binding. 100 μl of 1×10⁶ cells/ml of cells were incubated with primary antibody IgGs in 3-fold serial dilutions starting from 1 μM to 0.5 nM for 30 minutes on ice. After being washed with 200 μl of FACS buffer twice, cells were incubated with secondary antibody for 30 minutes on ice. Cells were washed with 200 μl of FACS buffer twice and transferred to BD Falcon 5 ml tube and analyzed by FACS.
# (§5) For selected binders, full binding curves were generated on CB1 receptor by testing a range of concentrations. Three-fold serial dilutions from 1 μM to 0.1 μM were prepared. Selectivity was determined by measuring binding to cells expressing 5HT2B or CB2, relative to binding to A156 (native human CB1 receptor expressing) or A56 (overexpressed-CB1 receptor with the T210A modification and ICL3 replacement with fusion partner) by flow cytometry. […] PE-conjugated anti-mouse (for detection of anti-CB2) and PE conjugated anti-human antibodies were used to detect CB2 and 5HT2B, respectively.
# mouse CB1 [9] = molecular target: T5, mouse CB1 (mouse, UniProt P47746 1-473); assay: flow cytometry on TRex-CHO mouse CB1 cells, lower panel
# T5 construct: whole, on cells; also called TRexCHO Mouse CB1
# T5 sequence (P47746 whole entry): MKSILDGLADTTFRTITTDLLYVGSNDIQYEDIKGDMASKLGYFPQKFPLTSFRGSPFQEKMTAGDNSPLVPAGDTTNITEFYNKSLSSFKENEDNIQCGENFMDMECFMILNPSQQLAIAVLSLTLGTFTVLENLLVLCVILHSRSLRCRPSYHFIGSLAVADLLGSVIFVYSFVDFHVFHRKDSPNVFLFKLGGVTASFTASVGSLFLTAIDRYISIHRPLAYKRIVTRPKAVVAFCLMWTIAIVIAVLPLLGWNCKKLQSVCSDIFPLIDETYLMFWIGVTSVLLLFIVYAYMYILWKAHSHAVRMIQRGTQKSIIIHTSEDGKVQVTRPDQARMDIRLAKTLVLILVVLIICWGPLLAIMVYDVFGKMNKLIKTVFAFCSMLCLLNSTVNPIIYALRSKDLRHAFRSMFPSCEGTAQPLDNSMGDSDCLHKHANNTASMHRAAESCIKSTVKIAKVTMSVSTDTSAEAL
# Method: as §3
# [10] = molecular target: T3, native full length human CB1 receptor …; assay: cell-based or functional assay
# [11] = molecular target: T3, native full length human CB1 receptor …; assay: flow cytometry, TRexCHO A156 cells
# Method: as §3
# [12] = molecular target: T6, TRex CHO A56 over-expressed CB1 (CB1 T210A/fusion partner) (UniProt P21554 1-472); assay: flow cytometry, A56 cells; batch 1.25 mg/ml
# T6 construct: whole, on cells; The fusion partner stands inside the CB1 chain in place of ICL3, not at its end; also called Trex-CHO CB1 T210A/fusion partner; not shown: fusion partner that replaces ICL3
# Method: as §4, §5
# [13] = molecular target: T3, native full length human CB1 receptor …; assay: flow cytometry, A156 cells; batch 1.25 mg/ml
# Method: as §4, §5
# [14] = molecular target: T3, native full length human CB1 receptor …; assay: flow cytometry, TRex-CHO human CB1 cells; mean of batch 3
# Method: as §2
# [15] = molecular target: T3, native full length human CB1 receptor …; assay: cell-based or functional assay; remark: listed apart in the source
# [16] = molecular target: T3, native full length human CB1 receptor …; assay: flow cytometry, IgG titrated on cells
# Method: as §4, §5
# [17] = molecular target: T6, TRex CHO A56 over-expressed CB1 (CB1 …); assay: flow cytometry, IgG titrated on cells
# Method: as §4, §5
# [18] = molecular target: 5HT2B (expression cell line) (Homo sapiens (Human), UniProt P41595 1-481); assay: flow cytometry, IgG titrated on cells
# Chain of 5HT2B (expression cell line) (P41595 whole entry): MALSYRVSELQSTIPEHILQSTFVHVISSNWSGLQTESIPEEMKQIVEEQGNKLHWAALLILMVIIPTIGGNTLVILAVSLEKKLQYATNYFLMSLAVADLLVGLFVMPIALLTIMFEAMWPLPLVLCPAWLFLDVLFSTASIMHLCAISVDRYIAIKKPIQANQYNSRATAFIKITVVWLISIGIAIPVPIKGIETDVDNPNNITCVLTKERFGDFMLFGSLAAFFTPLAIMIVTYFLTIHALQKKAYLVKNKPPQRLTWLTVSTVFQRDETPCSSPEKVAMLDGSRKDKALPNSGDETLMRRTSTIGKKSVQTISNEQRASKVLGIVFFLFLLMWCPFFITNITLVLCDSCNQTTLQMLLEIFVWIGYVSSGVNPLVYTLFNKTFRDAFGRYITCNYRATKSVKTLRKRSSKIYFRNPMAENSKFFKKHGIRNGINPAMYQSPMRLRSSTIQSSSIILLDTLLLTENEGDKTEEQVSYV
# Method: as §4, §5
# [19] = molecular target: T6, TRex CHO A56 over-expressed CB1 (CB1 …); assay: flow cytometry, A56 cells; batch 1.01 mg/ml
# Method: as §4, §5
# [20] = molecular target: T3, native full length human CB1 receptor …; assay: flow cytometry, A156 cells; batch 0.49 mg/ml
# Method: as §4, §5
# [21] = molecular target: T3, native full length human CB1 receptor …; assay: cell-based or functional assay; remark: listed apart in the source
# [22] = molecular target: T3, native full length human CB1 receptor …; assay: flow cytometry on TRex-CHO cells with tetracycline inducible human CB1
# Method: as §2
# [23] = molecular target: T3, native full length human CB1 receptor …; assay: flow cytometry, TRex-CHO human CB1 cells; mean of batch 1
# Method: as §2
# [24] = molecular target: T3, native full length human CB1 receptor …; assay: flow cytometry, A156 cells; batch 1.01 mg/ml; A156 cells; batch 1.01 mg/ml, first of two such rows
# Method: as §4, §5
# [25] = molecular target: T6, TRex CHO A56 over-expressed CB1 (CB1 …); assay: flow cytometry, TRexCHO A56 cells
# Method: as §3
# [26] = molecular target: T3, native full length human CB1 receptor …; assay: flow cytometry, A156 cells; batch 5.9 mg/ml
# Method: as §4, §5
# [27] = molecular target: T6, TRex CHO A56 over-expressed CB1 (CB1 …); assay: flow cytometry, A56 cells; batch 5.28 mg/ml
# Method: as §4, §5
# [28] = molecular target: T6, TRex CHO A56 over-expressed CB1 (CB1 …); assay: flow cytometry, A56 cells; batch 5.9 mg/ml
# Method: as §4, §5
# [29] = molecular target: T3, native full length human CB1 receptor …; assay: flow cytometry, A156 cells; batch 4.85 mg/ml
# Method: as §4, §5
# [30] = molecular target: T6, TRex CHO A56 over-expressed CB1 (CB1 …); assay: flow cytometry, A56 cells; batch 4.85 mg/ml
# Method: as §4, §5
# mouse CB1 [31] = molecular target: T5, mouse CB1; assay: flow cytometry on cells expressing the target
# human CB2 [32] = molecular target: T4, human CB2; assay: flow cytometry, IgG titrated on cells
# Method: as §4, §5
# [33] = molecular target: T3, native full length human CB1 receptor …; assay: flow cytometry, A156 cells; batch 5.78 mg/ml
# Method: as §4, §5
# [34] = molecular target: T6, TRex CHO A56 over-expressed CB1 (CB1 …); assay: flow cytometry, A56 cells; batch 5.78 mg/ml
# Method: as §4, §5
# [35] = molecular target: T3, native full length human CB1 receptor …; assay: flow cytometry, A156 cells; batch 5.28 mg/ml
# Method: as §4, §5
binder,measurement,setting,value
B1,EC50,[1],0.24 nM
same,EC50,[2],0.24 nM
same,EC50,[3],60.5 nM
B2,EC50,[4],57.8 nM
B3,EC50,[1],0.172 nM
same,Kd,[5],103 nM
same,Kd,[6],116 nM
same,binding result,human CB2 [7],no binding (tested: about 300 nM (last point))
same,Kd,[8],171 nM
same,binding result,mouse CB1 [9],no binding (tested: about 300 nM (last point))
same,cAMP IC50 (nM) Mean of Batch 1 [n],[10],120 nM
same,cAMP IC50 (nM) Mean of Batch 2 [n],[10],155 nM
same,EC50,[2],0.175 nM
same,Kd,[11],25 nM
same,Kd,[12],50.6 nM
same,Kd,[13],72.6 nM
same,Kd,[14],96 nM
same,"IC50 (nM), cAMP assay",[15],93 nM
same,EC50 (read off the curve),[16],~30 nM
same,EC50 (read off the curve),[17],~20 nM
same,binding result,[18],no binding (tested: 1000 nM)
same,Kd,[19],27.3 nM
same,Kd,[20],187 nM
same,"IC50, cAMP functional antagonist assay",[21],90 nM
same,EC50 (read off the curve),[22],~60 nM and ~40 nM
same,Kd,[23],92 nM
same,Kd,[24],40.5 nM
same,Kd,[25],10.5 nM
B4,Kd,[26],26 nM
same,Kd,[27],51.9 nM
same,Kd,[28],60.2 nM
same,Kd,[29],64 nM
same,Kd,[30],29.3 nM
same,binding result,mouse CB1 [31],no binding (tested: 1 µM)
same,EC50 (read off the curve),[16],~60 nM
same,EC50 (read off the curve),[17],~40 nM
same,binding result,human CB2 [32],no binding (tested: 1000 nM)
same,binding result,[18],no binding (tested: 1000 nM)
same,Kd,[33],151 nM
same,Kd,[34],69.4 nM
same,Kd,[35],27.7 nM
